Test results reported in patent US20180172701A1 (published 2018).

What was measured:
[1] = biological target: T1, human TNFα without compound (apo) (human, UniProt P01375 77-233); assay: SPR BIAcore T200; IgG captured on anti-mouse Fc; apo TNFα 50 nM injected
T1 construct: In-house human TNFα; No compound, DMSO only; also called apo human TNFα; hTNF

[2] = biological target: T2, human TNFα in complex with compound (1) (human, UniProt P01375 77-233); assay: SPR BIAcore T200; IgG captured on anti-mouse Fc; TNFα 50 nM + 2 µM compound injected
T2 construct: also called human TNFα +compound (1); TNFα-compound (1) complex

[3] = biological target: T3, human TNFα in complex with compound (2) (human, UniProt P01375 77-233); assay: as above
T3 construct: also called human TNFα +compound (2)

[4] = biological target: T2, human TNFα in complex with compound (1); assay: SPR BIAcore T200; IgG captured on anti-mouse Fc
[5] = biological target: T3, human TNFα in complex with compound (2); assay: SPR BIAcore T200; IgG captured on anti-mouse Fc
[6] = biological target: T2, human TNFα in complex with compound (1); assay: size exclusion chromatography (HPLC), molar excess of Fab

T2 sequence (P01375 77-233 limits assumed, one chain of several): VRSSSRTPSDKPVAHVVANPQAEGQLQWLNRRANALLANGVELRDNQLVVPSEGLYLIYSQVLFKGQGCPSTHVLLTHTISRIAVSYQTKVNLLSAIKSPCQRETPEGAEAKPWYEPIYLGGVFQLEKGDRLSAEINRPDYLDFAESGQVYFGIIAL
T3 sequence (P01375 77-233 limits assumed, one chain of several): as above
T1 sequence (P01375 77-233 limits assumed): as the sequence (P01375 77-233 limits assumed, one chain of several) above

B1: CA185_01979 mouse IgG1 (antibody, V domains shown)
VH: EVHLVESGPGLVKPSQSLSLTCSVTGYSITNSYWDWIRKFPGNKMEWMGYINYSGSTGYNPSLKSRISISRDTSNNQFFLQLNSITTEDTATYYCARGTYGYNAYHFDYWGRGVMVTVSS
VL: DIQMTQSPASLSASLEEIVTITCQASQDIGNWLSWYQQKPGKSPHLLIYGTTSLADGVPSRFSGSRSGTQYSLKISGLQVADIGIYVCLQAYSTPFTFGSGTKLEIKR
notes: also called CA185_01979.0; VR0001842
Q: Which Kd [1] does the source give for B1 here?
A: 6.7 nM

Q: What about the koff [1] of the same binder?
A: 0.00071 s⁻¹

Q: What about the kon [1] of the same binder?
A: 110000 M⁻¹ s⁻¹

Q: And the Kd [2]?
A: 0.034 nM

Q: What about the koff [2] of the same binder?
A: 1.6e-05 s⁻¹

Q: What about the kon [2] of the same binder?
A: 470000 M⁻¹ s⁻¹

Q: What about the Kd [3] of the same binder?
A: 0.058 nM

Q: And the koff [3]?
A: 3.3e-05 s⁻¹

Q: And the kon [3]?
A: 570000 M⁻¹ s⁻¹

Q: And the “log selective binding for compound-distorted against apo human TNFα” value [4]?
A: > 2 log

Q: And the “log selective binding for compound-distorted against apo human TNFα” value [5]?
A: > 2 log

B2: CA185_01979 mFab (no hinge) (Fab, V domains shown)
VH: B1 VH
VL: B1 VL
notes: also called CA185_01979 Fab
Q: Which “stoichiometry (Fab : TNFα trimer)” value [6] does the source give for B2 here?
A: 1 Fab per TNFα trimer
